In patent publication US20220406376A1 (MacroGenics, published 2022):

T1: extracellular portion of cynomolgus monkey CD137 fused to a histidine-containing peptide (cynomolgus monkey, UniProt A9YYE7 24-186)
T1 construct: extracellular domain; also called cynoCD137
T1 sequence: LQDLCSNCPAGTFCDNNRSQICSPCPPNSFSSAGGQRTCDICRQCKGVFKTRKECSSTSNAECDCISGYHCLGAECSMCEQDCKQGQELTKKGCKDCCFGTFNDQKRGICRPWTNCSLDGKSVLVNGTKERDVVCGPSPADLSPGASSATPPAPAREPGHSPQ


Columns and labels:
[1] = biological target: T2, HER2/neu on the surface of target cells (N87, JIMT-1, MCF-7, MDA-MB231) (UniProt P04626 23-1255, limits assumed); test: flow cytometry on N87 cells, anti-hFc APC MFI
T2 construct: whole, on cells

[2] = biological target: T3, CD137 on the surface of cells (activated human T cells; engineered CHO cells) (human, UniProt Q07011 24-255); test: flow cytometry on CD137-expressing CHO cells (CHO/137), anti-hFc APC MFI
T3 construct: whole, on cells; also called human CD137; cell surface expressed CD137

[3] = biological target: T1, extracellular portion of cynomolgus …; test: SPR (BIACORE); molecule captured on anti-human Fc; cynoCD137 6.25-100 nM; 1:1 Langmuir
Procedure: (§1) The amino acid sequences of these clones were incorporated into the 5 chain diabody DART-G to yield optimized DART-G molecules (designated as DART-G1, DART-G2; DART-G3, and DART-G4). The binding affinity of DART-G2, DART-G3, and DART-G4 were evaluated via BIAcore (Table 11). For such evaluation, His-tagged soluble human CD137 (huCD137) or cynomolgus monkey CD137 (cynoCD137) (containing an extracellular portion of human or cynomolgus monkey CD137 fused to a histidine-containing peptide) was passed over a surface coated with immobilized antibody. Briefly, each test molecule was captured onto an F(ab)₂ goat-anti-human Fc-coated surface and then incubated in the presence of different concentrations (6.25-100 nM) of huCD137 or cynoCD137. The kinetics of binding were determined via BIACORE® analysis binding (normalized 1:1 Langmuir binding model).

[4] = biological target: T3, CD137 on the surface of cells …; test: flow cytometry on activated pan T cells (donor D46433, CD8 PE), anti-hFc APC MFI
[5] = biological target: T4, extracellular portion of human CD137 fused to a histidine-containing peptide (human, UniProt Q07011 24-186); test: SPR (BIACORE); molecule captured on anti-human Fc; huCD137 6.25-100 nM; 1:1 Langmuir
T4 construct: extracellular domain; also called huCD137; His-tagged soluble human CD137
Procedure: as §1

[6] = biological target: T2, HER2/neu on the surface of target cells …; test: flow cytometry on JIMT-1 cells, anti-hFc APC MFI
[7] = biological target: T3, CD137 on the surface of cells …; test: flow cytometry on activated CD8+ T cells (donor D53781, CD8 FITC), anti-hFc APC MFI
[8] = biological target: T2, HER2/neu on the surface of target cells …; test: flow cytometry on MCF-7 cells, anti-hFc APC MFI
[9] = biological target: T1, extracellular portion of cynomolgus …; test: SPR (BIACORE); molecule captured on anti-human Fc; cynoCD137 6.25-100 nM; column head ×10^-4 applied as printed
Procedure: as §1

T3 sequence (Q07011 24-255, change not shown): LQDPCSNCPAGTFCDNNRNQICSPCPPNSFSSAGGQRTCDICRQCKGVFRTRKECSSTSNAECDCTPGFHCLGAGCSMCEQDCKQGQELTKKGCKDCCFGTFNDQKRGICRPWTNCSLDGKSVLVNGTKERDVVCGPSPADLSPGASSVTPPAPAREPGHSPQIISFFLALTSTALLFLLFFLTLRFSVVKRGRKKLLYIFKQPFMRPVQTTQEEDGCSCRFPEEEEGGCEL

Row | Binder | EC50 (read off the curve) [1] [nM] | EC50 (read off the curve) [2] [µg/mL] | Kd [3] [nM] | kon [3] [M⁻¹ s⁻¹] | EC50 (read off the curve) [4] [nM] | Kd [5] [nM] | koff [5] [s⁻¹] | kon [5] [M⁻¹ s⁻¹] | EC50 (read off the curve) [6] [nM] | EC50 (read off the curve) [7] [µg/mL] | EC50 (read off the curve) [8] [nM] | koff [9] [s⁻¹]
1 | DART-G2 (bispecific antibody, human IgG1, kappa, L234A L235A, also called optimized DART-G2) heavy: QVQLVQSGAEVKKPGASVKVSCKASGYTFTNYGMNWVRQAPGQGLEWMGWINTNIGEPTYTEEFKGRVTMTRDTSISTAYMELSRLRSDDTAVYYCARDDGYGNRVSYWGQGTLVTVSSASTKGPSVFPLAPSSKSTSGGTAALGCLVKDYFPEPVTVSWNSGALTSGVHTFPAVLQSSGLYSLSSVVTVPSSSLGTQTYICNVNHKPSNTKVDKRVEPKSCDKTHTCPPCPAPEAAGGPSVFLFPPKPKDTLMISRTPEVTCVVVDVSHEDPEVKFNWYVDGVEVHNAKTKPREEQYNSTYRVVSVLTVLHQDWLNGKEYKCKVSNKALPAPIEKTISKAKGQPREPQVYTLPPSREEMTKNQVSLSCAVKGFYPSDIAVEWESNGQPENNYKTTPPVLDSDGSFFLVSKLTVDKSRWQQGNVFSCSVMHEALHNRYTQKSLSLSPGK light: DIQMTQSPSSLSASVGDRVTITCKASQDISNYLSWFQQKPGKAPKTLIYRANRLQSGVPSRFSGSGSGTDFTLTISSLQPEDFATYYCLQHDEFPWTFGQGTKLEIKRTVAAPSVFIFPPSDEQLKSGTASVVCLLNNFYPREAKVQWKVDNALQSGNSQESVTEQDSKDSTYSLSSTLTLSKADYEKHKVYACEVTHQGLSSPVTKSFNRGEC chain 1: QVQLVQSGAEVKKPGASVKVSCKASGYTFTNYGMNWVRQAPGQGLEWMGWINTNIGEPTYTEEFKGRVTMTRDTSISTAYMELSRLRSDDTAVYYCARDDGYGNRVSYWGQGTLVTVSSASTKGPSVFPLAPSSKSTSGGTAALGCLVKDYFPEPVTVSWNSGALTSGVHTFPAVLQSSGLYSLSSVVTVPSSSLGTQTYICNVNHKPSNTKVDKRVEPKSCDKTHTCPPCPAPEAAGGPSVFLFPPKPKDTLMISRTPEVTCVVVDVSHEDPEVKFNWYVDGVEVHNAKTKPREEQYNSTYRVVSVLTVLHQDWLNGKEYKCKVSNKALPAPIEKTISKAKGQPREPQVYTLPPSREEMTKNQVSLWCLVKGFYPSDIAVEWESNGQPENNYKTTPPVLDSDGSFFLYSKLTVDKSRWQQGNVFSCSVMHEALHNHYTQKSLSLSPGGGGSGGGSGGGDIQMTQSPSSLSASVGDRVTITCRPSQDISNYLNWYQQKPDKTVKLLIYYTSRLRSGVPSRFSGSGSGTDFTFTISSLQPEDIATYFCQQGDTLPYTFGQGTKLEIKGGGSGGGGQVQVQLVQSGAEVKKPGASVKVSCKASGYTFTSYWINWVKQAPGQGLEWIGNIYPSDSYTNYNQKFKDKATITADKSTSTAYMELSSLRSEDTAVYYCTRDYGSAYSMSTWGQGTTVTVSSGGCGGGEVAALEKEVAALEKEVAALEKEVAALEK chain 2: DIQMTQSPSSLSASVGDRVTITCRPSQDISNYLNWYQQKPDKTVKLLIYYTSRLRSGVPSRFSGSGSGTDFTFTISSLQPEDIATYFCQQGDTLPYTFGQGTKLEIKGGGSGGGGQVQLVQSGAEVKKPGASVKVSCKASGYTFTSYWINWVKQAPGQGLEWIGNIYPSDSYTNYNQKFKDKATITADKSTSTAYMELSSLRSEDTAVYYCTRDYGSAYSMSTWGQGTTVTVSSGGCGGGKVAALKEKVAALKEKVAALKEKVAALKE | ~0.5 | ~0.02 | 64 | 390000 | ~0.1 | 60 | 0.021 | 350000 | ~0.2 | ~0.02 | ~0.09 | 0.025
2 | DART-G4 (bispecific antibody, human IgG1, kappa, L234A L235A, also called optimized DART-G4) heavy: QVQLVQSGAEVKKPGASVKVSCKASGYTFTNYGMNWVRQAPGQGLEWMGWINTNIGEPTYTEEFKGRVTMTRDTSISTAYMELSRLRSDDTAVYYCARDDGYGNRVSYWGQGTLVTVSSASTKGPSVFPLAPSSKSTSGGTAALGCLVKDYFPEPVTVSWNSGALTSGVHTFPAVLQSSGLYSLSSVVTVPSSSLGTQTYICNVNHKPSNTKVDKRVEPKSCDKTHTCPPCPAPEAAGGPSVFLFPPKPKDTLMISRTPEVTCVVVDVSHEDPEVKFNWYVDGVEVHNAKTKPREEQYNSTYRVVSVLTVLHQDWLNGKEYKCKVSNKALPAPIEKTISKAKGQPREPQVYTLPPSREEMTKNQVSLSCAVKGFYPSDIAVEWESNGQPENNYKTTPPVLDSDGSFFLVSKLTVDKSRWQQGNVFSCSVMHEALHNRYTQKSLSLSPGK light: DIQMTQSPSSLSASVGDRVTITCKASQDISNYLSWFQQKPGKAPKTLIYRANRLQSGVPSRFSGSGSGTDFTLTISSLQPEDFATYYCLQHDEFPWTFGQGTKLEIKRTVAAPSVFIFPPSDEQLKSGTASVVCLLNNFYPREAKVQWKVDNALQSGNSQESVTEQDSKDSTYSLSSTLTLSKADYEKHKVYACEVTHQGLSSPVTKSFNRGEC chain 1: QVQLVQSGAEVKKPGASVKVSCKASGYTFTNYGMNWVRQAPGQGLEWMGWINTNIGEPTYTEEFKGRVTMTRDTSISTAYMELSRLRSDDTAVYYCARDDGYGNRVSYWGQGTLVTVSSASTKGPSVFPLAPSSKSTSGGTAALGCLVKDYFPEPVTVSWNSGALTSGVHTFPAVLQSSGLYSLSSVVTVPSSSLGTQTYICNVNHKPSNTKVDKRVEPKSCDKTHTCPPCPAPEAAGGPSVFLFPPKPKDTLMISRTPEVTCVVVDVSHEDPEVKFNWYVDGVEVHNAKTKPREEQYNSTYRVVSVLTVLHQDWLNGKEYKCKVSNKALPAPIEKTISKAKGQPREPQVYTLPPSREEMTKNQVSLWCLVKGFYPSDIAVEWESNGQPENNYKTTPPVLDSDGSFFLYSKLTVDKSRWQQGNVFSCSVMHEALHNHYTQKSLSLSPGGGGSGGGSGGGDIQMTQSPSSLSASVGDRVTITCRPSQDISNYLNWYQQKPDKTVKLLIYYTSRLRSGVPSRFSGSGSGTDFTFTISSLQPEDIATYFCQQGDTLPYTFGQGTKLEIKGGGSGGGGQVQVQLVQSGAEVKKPGASVKVSCKASGYTFTSYWINWVKQAPGQGLEWIGNIYPSDSYTNYNQKFKDKATITADKSTSTAYMELSSLRSEDTAVYYCTRDYGSSYSYNVWGQGTTVTVSSGGCGGGEVAALEKEVAALEKEVAALEKEVAALEK chain 2: DIQMTQSPSSLSASVGDRVTITCRPSQDISNYLNWYQQKPDKTVKLLIYYTSRLRSGVPSRFSGSGSGTDFTFTISSLQPEDIATYFCQQGDTLPYTFGQGTKLEIKGGGSGGGGQVQLVQSGAEVKKPGASVKVSCKASGYTFTSYWINWVKQAPGQGLEWIGNIYPSDSYTNYNQKFKDKATITADKSTSTAYMELSSLRSEDTAVYYCTRDYGSSYSYNVWGQGTTVTVSSGGCGGGKVAALKEKVAALKEKVAALKEKVAALKE | ~0.5 | ~0.02 | 40 | 350000 | ~0.08 | 28 | 0.0087 | 310000 | ~0.2 | ~0.02 | ~0.09 | 0.014
